Assay results taken from article PMC2807882, “Conservation of DNA-binding specificity and oligomerisation properties within the p53 family”.

T1: ΔNp63β (Homo sapiens, UniProt Q9H3D4-4 1-461)
T1 sequence: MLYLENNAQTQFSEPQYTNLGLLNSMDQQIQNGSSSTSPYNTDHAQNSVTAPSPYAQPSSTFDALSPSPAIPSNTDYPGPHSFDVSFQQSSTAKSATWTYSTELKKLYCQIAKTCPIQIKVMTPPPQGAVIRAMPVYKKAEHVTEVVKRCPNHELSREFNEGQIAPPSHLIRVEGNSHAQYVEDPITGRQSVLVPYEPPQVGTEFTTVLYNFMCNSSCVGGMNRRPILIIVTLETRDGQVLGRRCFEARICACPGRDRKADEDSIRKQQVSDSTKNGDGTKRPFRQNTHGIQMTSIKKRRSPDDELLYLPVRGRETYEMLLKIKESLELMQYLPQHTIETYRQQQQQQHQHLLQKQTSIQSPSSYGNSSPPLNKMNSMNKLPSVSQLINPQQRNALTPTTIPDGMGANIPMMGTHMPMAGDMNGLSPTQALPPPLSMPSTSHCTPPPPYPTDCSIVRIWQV

T2: Drp53 (Danio rerio, UniProt P79734 1-373)
T2 sequence: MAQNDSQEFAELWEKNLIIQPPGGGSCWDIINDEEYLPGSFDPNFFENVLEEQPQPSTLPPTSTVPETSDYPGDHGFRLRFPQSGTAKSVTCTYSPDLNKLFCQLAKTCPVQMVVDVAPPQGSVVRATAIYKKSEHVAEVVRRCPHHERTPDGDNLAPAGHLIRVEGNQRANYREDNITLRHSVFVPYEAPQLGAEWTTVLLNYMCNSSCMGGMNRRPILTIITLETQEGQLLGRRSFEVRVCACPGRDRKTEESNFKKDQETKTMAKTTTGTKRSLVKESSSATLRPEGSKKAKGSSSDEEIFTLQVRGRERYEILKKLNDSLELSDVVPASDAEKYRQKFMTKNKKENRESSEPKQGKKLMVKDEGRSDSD

T3: Dmp53 (Drosophila melanogaster, UniProt Q9N6D8 1-385)
T3 sequence: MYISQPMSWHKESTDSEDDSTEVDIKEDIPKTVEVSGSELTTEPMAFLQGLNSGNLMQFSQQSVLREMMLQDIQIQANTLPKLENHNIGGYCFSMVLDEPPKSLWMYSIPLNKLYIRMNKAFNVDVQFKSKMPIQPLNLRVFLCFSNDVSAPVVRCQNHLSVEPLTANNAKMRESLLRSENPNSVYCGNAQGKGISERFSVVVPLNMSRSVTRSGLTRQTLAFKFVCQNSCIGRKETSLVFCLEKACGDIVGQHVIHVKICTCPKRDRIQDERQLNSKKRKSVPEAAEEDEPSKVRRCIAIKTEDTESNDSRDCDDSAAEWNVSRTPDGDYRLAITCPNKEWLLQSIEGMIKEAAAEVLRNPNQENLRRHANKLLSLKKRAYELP


Tests used:
Xlp53 [1] = biological target: T4, Xlp53 (Xenopus laevis, UniProt Q7T1D0 1-362); assay: anisotropy competition; 25 mM NaPi, 225 mM NaCl, 10% v/v glycerol, 5 mM DTT, 0.2 mg/mL BSA, 22°C; 20 nM labelled DNA; pH not stated for the binding assay; conditions: protein: recombinant; tags: N-terminal 6xHis-lipoyl-TEV tag, cleaved; chain copies: 4
ΔNp63β [2] = biological target: T1, ΔNp63β; assay: fluorescence anisotropy direct titration; 25 mM sodium phosphate (purification buffer pH 7.2), 225 mM NaCl, 10% v/v glycerol, 5 mM DTT, 0.2 mg/mL BSA, 22 C; conditions: protein: recombinant; tags: N-terminal 6xHis-lipoyl-TEV tag, cleaved; chain copies: 4; label: 5'-Alexa488
Drp53 = biological target: T2, Drp53; assay: as above; conditions: protein: recombinant; tags: N-terminal 6xHis-lipoyl-TEV tag, cleaved; chain copies: 4; label: 5'-Alexa488
Mmp53 = Mmp53 (Mus musculus, UniProt P02340 1-390); assay: fluorescence anisotropy, direct; 25 mM NaPi, 225 mM NaCl, 10% v/v glycerol, 5 mM DTT, 0.2 mg/mL BSA, 22°C; 20 nM labelled DNA; pH not stated for the binding assay; conditions: protein: recombinant; tags: N-terminal 6xHis-lipoyl-TEV tag, cleaved; chain copies: 4; label: 5'-Alexa488
ΔNp63β [3] = biological target: T1, ΔNp63β; assay: as above; conditions: protein: recombinant; tags: N-terminal 6xHis-lipoyl-TEV tag, cleaved; chain copies: 4; label: 5'-Alexa488
Dmp53 = biological target: T3, Dmp53; assay: as above; conditions: protein: recombinant; tags: N-terminal 6xHis-lipoyl-TEV tag, cleaved; chain copies: 4; label: 5'-Alexa488
Hsp53 = Hsp53 (Homo sapiens, UniProt P04637 1-393); assay: as above; conditions: protein: recombinant; tags: N-terminal 6xHis-lipoyl-TEV tag, cleaved; chain copies: 4; label: 5'-Alexa488
Xlp53 [4] = biological target: T4, Xlp53; assay: as above; conditions: protein: recombinant; tags: N-terminal 6xHis-lipoyl-TEV tag, cleaved; chain copies: 4; label: 5'-Alexa488

T4 sequence (Q7T1D0 entry or part of it): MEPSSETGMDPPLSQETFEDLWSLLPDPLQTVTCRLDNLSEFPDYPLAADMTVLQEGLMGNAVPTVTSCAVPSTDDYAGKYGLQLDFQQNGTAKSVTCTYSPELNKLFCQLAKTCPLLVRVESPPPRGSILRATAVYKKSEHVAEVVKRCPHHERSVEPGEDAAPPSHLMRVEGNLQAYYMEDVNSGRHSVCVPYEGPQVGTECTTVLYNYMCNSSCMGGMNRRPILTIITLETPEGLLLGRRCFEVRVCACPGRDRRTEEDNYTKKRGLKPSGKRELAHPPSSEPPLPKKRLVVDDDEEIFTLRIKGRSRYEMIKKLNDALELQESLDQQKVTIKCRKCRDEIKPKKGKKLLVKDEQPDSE
Hsp53, sequence (P04637 whole entry): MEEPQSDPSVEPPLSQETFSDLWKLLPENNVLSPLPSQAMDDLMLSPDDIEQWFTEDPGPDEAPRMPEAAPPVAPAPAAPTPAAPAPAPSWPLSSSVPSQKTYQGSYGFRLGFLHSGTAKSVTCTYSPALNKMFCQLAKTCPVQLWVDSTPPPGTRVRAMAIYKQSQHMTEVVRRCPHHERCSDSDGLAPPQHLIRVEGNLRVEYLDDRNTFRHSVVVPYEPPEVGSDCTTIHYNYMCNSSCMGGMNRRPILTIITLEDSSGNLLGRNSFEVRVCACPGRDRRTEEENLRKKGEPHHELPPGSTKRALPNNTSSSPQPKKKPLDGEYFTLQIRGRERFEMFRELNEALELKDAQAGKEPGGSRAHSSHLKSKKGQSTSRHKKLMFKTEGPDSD
Mmp53, sequence (P02340 whole entry): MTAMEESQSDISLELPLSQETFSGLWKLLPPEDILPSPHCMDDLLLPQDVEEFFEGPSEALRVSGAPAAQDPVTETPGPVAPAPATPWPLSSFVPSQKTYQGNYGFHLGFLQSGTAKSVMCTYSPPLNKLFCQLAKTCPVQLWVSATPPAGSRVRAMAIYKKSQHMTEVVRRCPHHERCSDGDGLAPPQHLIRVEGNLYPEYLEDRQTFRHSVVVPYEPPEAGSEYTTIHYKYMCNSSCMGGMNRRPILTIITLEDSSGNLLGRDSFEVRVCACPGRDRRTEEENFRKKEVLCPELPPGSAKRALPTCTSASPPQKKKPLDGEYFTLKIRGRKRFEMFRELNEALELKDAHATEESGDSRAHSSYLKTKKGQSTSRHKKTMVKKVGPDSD

Row | Binder | Kd (Xlp53 [1]) | Kd (ΔNp63β [2]) [nM] | Kd (Drp53) [nM] | Kd (Mmp53) | Kd (ΔNp63β [3]) | Kd (Dmp53) | Kd (Hsp53) | Kd (Xlp53 [4])
1 | Ref competitor (dsDNA) DNA 1: CGCGGACATGTCCGGACATGTCCCGC DNA 2: GCGGGACATGTCCGGACATGTCCGCG | -7.08 log10(M) | – | – | – | – | – | – | –
2 | Ref_Alexa488 (dsDNA) DNA 1: GGACATGTCCGGACATGTCC DNA 2: GGACATGTCCGGACATGTCC | – | 74.1 | 63.1 | -7.02 ± 0.04 log10(M) | -7.13 ± 0.04 log10(M) | -7.28 ± 0.03 log10(M) | -7.25 ± 0.03 log10(M) | -7.32 ± 0.02 log10(M)
